Test results published in US20140242068A1 (EMORY UNIVERSITY, published 2014).

T1: JAMA on CHO cells (CHO-JAMA transfectants) (UniProt Q9Y624 28-299, limits assumed)
T1 construct: whole, on cells; Construct not described
T1 sequence (looked up): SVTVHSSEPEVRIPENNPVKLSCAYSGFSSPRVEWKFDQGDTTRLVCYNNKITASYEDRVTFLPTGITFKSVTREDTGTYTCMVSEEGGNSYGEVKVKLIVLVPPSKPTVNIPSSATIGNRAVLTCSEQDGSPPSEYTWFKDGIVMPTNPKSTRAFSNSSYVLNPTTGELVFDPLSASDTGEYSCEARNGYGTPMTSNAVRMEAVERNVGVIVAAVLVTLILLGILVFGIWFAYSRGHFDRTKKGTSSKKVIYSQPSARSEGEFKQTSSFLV

T2: EVA-His (UniProt O60487 27-154, limits assumed)
T2 construct: Construct not described; also called EVA1; not shown: His tag
T2 sequence (looked up): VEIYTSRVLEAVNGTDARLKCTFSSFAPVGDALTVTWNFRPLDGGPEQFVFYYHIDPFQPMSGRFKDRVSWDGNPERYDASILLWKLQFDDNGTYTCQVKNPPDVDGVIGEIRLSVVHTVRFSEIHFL

T3: JAMA-Fc (UniProt Q9Y624 28-238, limits assumed)
T3 construct: the construct is not described; not shown: Fc tag
T3 sequence (looked up): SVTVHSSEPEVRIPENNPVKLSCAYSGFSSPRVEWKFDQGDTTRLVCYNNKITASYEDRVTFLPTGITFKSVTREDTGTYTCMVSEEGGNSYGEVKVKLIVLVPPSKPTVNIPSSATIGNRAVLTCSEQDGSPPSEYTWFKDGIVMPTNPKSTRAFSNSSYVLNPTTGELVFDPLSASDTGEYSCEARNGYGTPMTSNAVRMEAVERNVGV

T4: purified extracellular domain of CAR tagged with GST (CAR-GST) (UniProt P78310 20-237, limits assumed)
T4 construct: extracellular domain; also called soluble CAR; sCAR; not shown: GST tag
T4 sequence (looked up): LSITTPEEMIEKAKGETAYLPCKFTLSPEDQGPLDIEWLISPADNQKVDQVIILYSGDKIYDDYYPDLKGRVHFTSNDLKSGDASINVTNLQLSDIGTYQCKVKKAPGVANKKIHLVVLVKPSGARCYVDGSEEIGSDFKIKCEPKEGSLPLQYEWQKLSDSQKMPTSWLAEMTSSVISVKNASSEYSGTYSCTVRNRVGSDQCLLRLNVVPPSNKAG

T5: JAMC_Fc (UniProt Q9BX67 32-241, limits assumed)
T5 construct: Construct not described; not shown: Fc tag
T5 sequence (looked up): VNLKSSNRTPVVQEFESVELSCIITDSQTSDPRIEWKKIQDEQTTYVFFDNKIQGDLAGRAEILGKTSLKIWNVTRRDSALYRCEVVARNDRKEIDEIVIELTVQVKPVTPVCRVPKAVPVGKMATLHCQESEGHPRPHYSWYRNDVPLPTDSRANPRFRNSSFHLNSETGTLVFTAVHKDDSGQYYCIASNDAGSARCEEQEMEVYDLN

T6: CLMP-Fc (UniProt Q9H6B4 19-235, limits assumed)
T6 construct: Construct not described; also called CAR-like membrane protein; not shown: Fc tag
T6 sequence (looked up): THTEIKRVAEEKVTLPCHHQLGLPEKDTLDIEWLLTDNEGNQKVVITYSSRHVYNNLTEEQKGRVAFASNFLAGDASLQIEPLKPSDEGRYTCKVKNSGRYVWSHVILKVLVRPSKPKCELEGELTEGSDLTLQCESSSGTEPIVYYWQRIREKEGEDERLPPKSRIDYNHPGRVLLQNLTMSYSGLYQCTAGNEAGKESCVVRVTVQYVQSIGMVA

T7: JAMA-GST (UniProt Q9Y624 28-238, limits assumed)
T7 construct: Construct not described; not shown: GST tag
T7 sequence (looked up): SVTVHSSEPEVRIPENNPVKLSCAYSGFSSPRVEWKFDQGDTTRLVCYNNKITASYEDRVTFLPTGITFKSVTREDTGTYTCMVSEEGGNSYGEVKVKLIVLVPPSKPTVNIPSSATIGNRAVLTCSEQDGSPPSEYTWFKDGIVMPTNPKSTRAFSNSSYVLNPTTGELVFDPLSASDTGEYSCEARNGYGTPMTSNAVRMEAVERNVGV


Tests used:
[1] = target: T1, JAMA on CHO cells (CHO-JAMA …); assay: staining of CHO-JAMA transfectants
[2] = target: T2, EVA-His; assay: ELISA, antigen coated at 5 µg/ml
[3] = target: T3, JAMA-Fc; assay: ELISA, antigen coated at 5 µg/ml
[4] = target: T8, SIRPA-HIS (UniProt P78324 31-370, limits assumed); assay: ELISA, antigen coated at 5 µg/ml
T8 construct: Construct not described; not shown: His tag
T8 sequence (P78324 31-370 limits assumed): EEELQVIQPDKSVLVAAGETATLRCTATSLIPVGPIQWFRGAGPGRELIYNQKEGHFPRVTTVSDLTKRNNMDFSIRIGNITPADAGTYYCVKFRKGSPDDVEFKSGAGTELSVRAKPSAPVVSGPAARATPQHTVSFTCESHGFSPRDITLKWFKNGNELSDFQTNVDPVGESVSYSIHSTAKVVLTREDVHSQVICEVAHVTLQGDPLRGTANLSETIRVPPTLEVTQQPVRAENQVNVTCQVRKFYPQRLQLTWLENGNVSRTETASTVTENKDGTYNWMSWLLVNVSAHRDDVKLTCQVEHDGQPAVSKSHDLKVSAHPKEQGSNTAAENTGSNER

[5] = target: T4, purified extracellular domain of CAR …; assay: ELISA, antigen coated at 5 µg/ml
[6] = target: BSA (UniProt P02769 25-607); assay: ELISA, antigen coated at 5 µg/ml
BSA, sequence (P02769 25-607 limits assumed): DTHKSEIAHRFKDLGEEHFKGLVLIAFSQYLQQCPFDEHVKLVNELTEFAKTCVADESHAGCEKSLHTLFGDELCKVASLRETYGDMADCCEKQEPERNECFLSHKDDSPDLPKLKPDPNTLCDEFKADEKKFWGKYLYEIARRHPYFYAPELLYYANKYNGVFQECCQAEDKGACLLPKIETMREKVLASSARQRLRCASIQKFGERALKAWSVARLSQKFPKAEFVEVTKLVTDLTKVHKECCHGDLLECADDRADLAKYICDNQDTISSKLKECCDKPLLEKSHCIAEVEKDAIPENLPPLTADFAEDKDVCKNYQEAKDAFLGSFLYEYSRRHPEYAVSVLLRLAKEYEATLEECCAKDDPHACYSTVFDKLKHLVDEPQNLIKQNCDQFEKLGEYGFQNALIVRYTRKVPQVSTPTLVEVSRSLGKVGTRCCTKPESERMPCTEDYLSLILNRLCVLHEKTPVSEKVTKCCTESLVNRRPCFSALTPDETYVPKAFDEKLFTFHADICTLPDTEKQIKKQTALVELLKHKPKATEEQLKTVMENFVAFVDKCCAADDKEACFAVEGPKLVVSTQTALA

[7] = target: T5, JAMC_Fc; assay: ELISA, antigen coated at 5 µg/ml
[8] = target: T6, CLMP-Fc; assay: ELISA, antigen coated at 5 µg/ml
[9] = target: T7, JAMA-GST; assay: ELISA, antigen coated at 5 µg/ml

Binder | binding result [1] | binding result [2] | binding result [3] | binding result [4] | binding result [5] | binding result [6] | binding result [7] | binding result [8] | binding result [9]
DW100 (antibody, IgG1, V domains shown, also called DW100 mAb; anti-JAML monoclonal antibody DW100) VH: DVQLVESGAELVRPGASVKLSCKALAYTFTDYEMHWVKQTPVHGLEWIGIIHPGSGGTVYNQKFKGKATLTADKSSSTAYMELSSLTSEDSTVYYCTRRRYYGSSYWYFDVWGAGN VL: VLTQSPASLAASVGETVTITCRASENIYYSLAWYQQKQGKSPQLLIYNANSLEDGVPSRFSGSGSGTQYSLKINSMQPEDTATYFCEQTYDVPLTFGAGTKLEL | no binding | no binding (tested: antibody 10 µg/ml) | no binding (tested: antibody 10 µg/ml) | no binding (tested: antibody 10 µg/ml) | no binding (tested: antibody 10 µg/ml) | no binding (tested: antibody 10 µg/ml) | no binding (tested: antibody 10 µg/ml) | no binding (tested: antibody 10 µg/ml) | no binding (tested: antibody 10 µg/ml)
DW216 (antibody, IgG1, V domains shown, also called DW216 mAb; H3L3) VH: DVQLVESGPGLVKPSQSLSLTCTVTGYSITSDYAWNWIRQFPGNKLEWMGYISSSGNSNYNPSLKSRISITRDTSKNQFFLQLNSVTTEDTATYYCAGATGYSMDYWGQGTTLTVK VL: VLTQSPAIMSASLGERVTMTCTASSSVSSSYLHWYQQKPGSSPKLWIYSTSNLASGVPARFSGSGSGTSYSLTISSMEAEDAATYYCHQYHRSPFTFGSGTKLELK | no binding | no binding (tested: antibody 10 µg/ml) | no binding (tested: antibody 10 µg/ml) | no binding (tested: antibody 10 µg/ml) | no binding (tested: antibody 10 µg/ml) | no binding (tested: antibody 10 µg/ml) | no binding (tested: antibody 10 µg/ml) | no binding (tested: antibody 10 µg/ml) | no binding (tested: antibody 10 µg/ml)
